Reference: patent US20260209311A1, “MODIFIED G PROTEIN COUPLED RECEPTOR AND USE THEREOF” (ALPHELIX BIOTECH CO., LTD., priority 2023, published 2026)

Target: T1, modified GPR75 (GPR75-GFP10-11 modified protein complex) (Homo sapiens, UniProt O95800, A308G/DEL234-307/I309H/INS313[…]/N310Y)
T1 construct: obesity-related receptor GPR75 (1-395); signal peptide (N); made in house; The clamp protein is made in E. coli Rosetta 2 (DE3), as described for GFP-clamp
Assay: SPR determination of affinity of purified modified GPR75 to CCL5 ligand
Type: binding
Conditions: Biacore 8K, Series S Sensor SA chip, pH 7.4; values only in FIG. 79 C
Description: The purification and identification method of the modified GPR75 fusion protein refers to Example 4. The difference is that during the purification, GFP-clamp-avi-biotin was added rather than GFP-clamp. The molecular sieve chromatography result graph of the modified fusion protein is seen in A of FIG. 79, and the SDS gel electrophoresis result graph of the modified fusion protein is seen in B of FIG. 79.
The purified GPR75 was used for determination of affinity to CCL5 ligand via surface plasmon resonance (SPR). The used instrument was Biacore 8K, and the chip was Series S Sensor SA Chip:SA-2429. Both a protein immobilization buffer and a running buffer contained 20 mM HEPES, 150 mM NaCl, 0.005% LMNG and 0.0005% CHS, pH 7.4. The affinity determination results are seen in C of FIG. 79.

Q: Which “affinity (SPR)” value does the source give for “CCL5: CCL5 ligand of the obesity-related receptor GPR75” here?
A: The value was “close to reported results”.
